Molecular target: Aβ_(1–40) fibrils (amyloid β peptide 1–40, fibrillar form) (UniProt P05067)
Assay: SPR; BIAcore 3000, CM5 chip; Aβ 1–40 fibrils immobilised by amine coupling at 2000 RU; ApoE4 injected at 20 μL/min until saturation; degassed PBS pH 7.4, 25 °C

Aβ_(1–40) fibrils (amyloid β peptide 1–40, fibrillar form), sequence (P05067 672-711): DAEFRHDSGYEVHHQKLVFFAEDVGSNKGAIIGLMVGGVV

Substance: recombinant human ApoE4 (Apolipoprotein E, ε4 allele) (from UniProt P02649 19-317) (natural protein)
- Kd: 5 nM

From article PMC6907347
